Data: patent publication US9127249B2, “Method for preparing metabolites of atorvastatin using bacterial cytochrome P450 and composition therefor” (INDUSTRY FOUNDATION OF CHONNAM NATIONAL UNIVERSITY, priority 2011, dated 2015)
Numbering of substitutions follows the chain as printed. In names and notes the source's numbering stands. Entries after “also recorded” stand apart in the source; their conditions may differ.

B1: Mutant #17: CYP102A1 mutant R47L/E64G/F81I/F87V/E143G/L188Q/E267V (SEQ ID NO 20) (protein)
chain: MTIKEMPQPKTFGELKNLPLLNTDKPVQALMKIADELGEIFKFEAPGLVTRYLSSQRLIKEACDGSRFDKNLSQALKFVRDIAGDGLVTSWTHEKNWKKAHNILLPSFSQQAMKGYHAMMVDIAVQLVQKWERLNADEHIEVPGDMTRLTLDTIGLCGFNYRFNSFYRDQPHPFITSMVRALDEAMNKQQRANPDDPAYDENKRQFQEDIKVMNDLVDKIIADRKASGEQSDDLLTHMLNGKDPETGEPLDDENIRYQIITFLIAGHVTTSGLLSFALYFLVKNPHVLQKAAEEAARVLVDPVPSYKQVKQLKYVGMVLNEALRLWPTAPAFSLYAKEDTVLGGEYPLEKGDELMVLIPQLHRDKTIWGDDVEEFRPERFENPSAIPQHAFKPFGNGQRACIGQQFALHEATLVLGMMLKHFDFEDHTNYELDIKETLTLKPEGFVVKAKSKKIPLGGIPSPSTEQSAKKVRKKVENAHNTPLLVLYGSNMGTAEGTARDLADIAMSKGFAPQVATLDSHAGNLPREGAVLIVTASYNGHPPDNAKQFVDWLDQASADDVKGVRYSVFGCGDKNWATTYQKVPAFIDETLAAKGAENIADRGEADASDDFEGTYEEWREHMWSDVAAYFNLDIENSEDNKSTLSLQFVDSAADMPLAKMHGAFSANVVASKELQQLGSERSTRHLEIALPKEASYQEGDHLGVIPRNYEGIVNRVTARFGLDASQQIRLEAEEEKLAHLPLGKTVSVEELLQYVELQDPVTRTQLRAMAAKTVCPPHKVELEALLEKQAYKEQVLAKRLTMLELLEKYPACEMEFSEFIALLPSISPRYYSISSSPHVDEKQASITVSVVSGEAWSGYGEYKGIASNYLANLQEGDTITCFVSTPQSGFTLPKDSETPLIMVGPGTGVAPFRGFVQARKQLKEQGQSLGEAHLYFGCRSPHEDYLYQEELENAQNEGIITLHTAFSRVPNQPKTYVQHVMERDGKKLIELLDQGAHFYICGDGSQMAPDVEATLMKSYADVYEVSEADARLWLQQLEEKGRYAKDVWAG
modifications: CYP102A1 mutant #17
B2: #16A1V2: chimera: heme domain of mutant #16 fused to V2 reductase domain of Table 4 (SEQ ID NO 22) (protein)
chain: B1 chain with L48R, G65E, I82F, V88F, G144E, Q189L, V268E
modifications: chimera #16A1V2
B3: Mutant #16: CYP102A1 mutant R47L/F81I/F87V/E143G/L188Q/E267V (SEQ ID NO 18) (protein)
chain: MTIKEMPQPKTFGELKNLPLLNTDKPVQALMKIADELGEIFKFEAPGLVTRYLSSQRLIKEACDESRFDKNLSQALKFVRDIAGDGLVTSWTHEKNWKKAHNILLPSFSQQAMKGYHAMMVDIAVQLVQKWERLNADEHIEVPGDMTRLTLDTIGLCGFNYRFNSFYRDQPHPFITSMVRALDEAMNKQQRANPDDPAYDENKRQFQEDIKVMNDLVDKIIADRKASGEQSDDLLTHMLNGKDPETGEPLDDENIRYQIITFLIAGHVTTSGLLSFALYFLVKNPHVLQKAAEEAARVLVDPVPSYKQVKQLKYVGMVLNEALRLWPTAPAFSLYAKEDTVLGGEYPLEKGDELMVLIPQLHRDKTIWGDDVEEFRPERFENPSAIPQHAFKPFGNGQRACIGQQFALHEATLVLGMMLKHFDFEDHTNYELDIKETLTLKPEGFVVKAKSKKIPLGGIPSPSTEQSAKKVRKKAENAHNTPLLVLYGSNMGTAEGTARDLADIAMSKGFAPQVATLDSHAGNLPREGAVLIVTASYNGHPPDNAKQFVDWLDQASADEVKGVRYSVFGCGDKNWATTYQKVPAFIDETLAAKGAENIADRGEADASDDFEGTYEEWREHMWSDVAAYFNLDIENSEDNKSTLSLQFVDSAADMPLAKMHGAFSTNVVASKELQQPGSARSTRHLEIELPKEASYQEGDHLGVIPRNYEGIVNRVTARFGLDASQQIRLEAEEEKLAHLPLAKTVSVEELLQYVELQDPVTRTQLRAMAAKTVCPPHKVELEALLEKQAYKEQVLAKRLTMLELLEKYPACEMKFSEFIALLPSIRPRYYSISSSPRVDEKQASITVSVVSGEAWSGYGEYKGIASNYLAELQEGDTITCFISTPQSEFTLPKDPETPLIMVGPGTGVAPFRGFVQARKQLKEQGQSLGEAHLYFGCRSPHEDYLYQEELENAQSEGIITLHTAFSRMPNQPKTYVQHVMEQDGKKLIELLDQGAHFYICGDGSQMAPAVEATLMKSYADVHQVSEADARLWLQQLEEKGRYAKDVWAG
modifications: CYP102A1 mutant#16

Key:
[1] = Turnover number of atorvastatin oxidation by CYP102A1 enzymes (HPLC); assay type: biochemical; conditions: 80 μM atorvastatin, FIG. 13; for turnover number in oxidation of atorvastatin: 50 pmol enzyme, NADPH-generating system, 37° C., 30 minutes, production of 4-hydroxylated metabolite by HPLC
Experimental: It was examined whether the wild-type CYP102A1, the CYP102A1 mutants, and the chimeras derived from the CYP1.02A1 mutants may oxidize atorvastatin. Typical steady-state reactions was performed by adding 50 pmol CYP102A1 and 80 μM substrate to 0.25 ml of 100 mM potassium phosphate buffer solution (pH 7.4). In order to initiate reactions, the NADPH-generating system was added thereto (final concentrations: 10 mM glucose 6-phosphate, 0.5 mM NADP^+, and 1 IU […] per ml). A stock solution of atorvastatin (20 mM) was prepared in DMSO and diluted into the enzyme reaction solution to have a final organic solvent concentration of <1% (v/v).
In order to measure human CYP3A4 activity, 50 pmol P450, 100 pmol NADPH-P450 reductase (CPR), 100 pmol cytochrome b5, and 45 μM L-α-dilauroyl-sn-glycero-3-phosphocholine (DLPC) were used instead of 50 pmol CYP102A1. After the reaction solution was reacted for 30 minutes at 37° C., the reaction was terminated with 2-fold of ice-cold dichloromethane.
After centrifugation of the reaction mixture, a supernatant was removed and a solvent was evaporated under nitrogen gas and analyzed using HPLC. A sample (30 ul) was injected into Gemini C18 column (4.6 mm×150 mm, 5 um. Phenomenex. Torrance, Calif.). As a mobile phase A, water containing 0.1% formic acid/acetonitrile (80/20, v/v) was used, and as a mobile phase B, acetonitrile/0.1% formic acid (90/10, v/v) was used. The mobile phase A/B (70/30, v/v) was flowed at a rate of 1 ml·min^−1 using a gradient pump (LC-20AD, Shimadzu, Kyoto, Japan). Elution solutions were detected by UV at 260 nm.
In order to examine whether or not CYP102A1 (P450 BM3) may oxidize atorvastatin, the abilities of the wild-type CYP102A1 (P450 BM3), the mutants thereof, and the chimeras derived from the CYP102A1 mutants to oxidize atorvastatin were measured at a fixed substrate concentration (80 μM).
In order to recognize production rate of atorvastatin oxides by wild-type CYP102A1, CYP102A1 mutants, and chimeras derived from the CYP102A1 mutants, the turnover number was determined in the reaction using 80 μM statin.
The term “turnover number” means the number of substrate molecules that a molecule of an enzyme may convert into products per minute and indicates conversion frequency.
The production rate of 4-hydroxylated metabolite was determined by HPLC as described above.

[2] = Total turnover number (TTN) of atorvastatin oxidation; assay type: biochemical; conditions: reacted for 4 hours
Experimental: In order to recognize production rate of atorvastatin metabolites by the CYP102A1 mutant (#16 in Table 2) and the chimeras (#16A1V2 and #17A1V2) derived from the CYP102A1 mutants, total turnover numbers (TTNs; mol product/mol catalyst) were determined in reactions using total 240 μM atorvastatin.
The term “total turnover number (TTN)” means the number of substrate molecules converted into metabolites by enzymes for the total reaction time.
The total turnover numbers (TTNs) were determined by comparing the results under three conditions. First, the reaction was performed by adding a NADPH-generating system at 37° C. for 1 hour in the presence of 80 μM substrate. In addition, second, after reaction was performed for 1 hour in the presence of 80 μM substrate, 80 μM substrate was additionally added to the reaction mixture, and the reaction was further performed for 1 hour. Finally, after reaction was performed for 1 hour in the presence of 80 μM substrate, 80 μM substrate was additionally added to the reaction mixture, and the reaction was further performed for 1 hour. Then, 80 μM substrate was additionally added to the reaction mixture, and the reaction was further performed for 2 hours.
The production rate of the atorvastatin metabolites was determined using HPLC. […]

Molecule	turnover number in oxidation of atorvastatin [1]	activity compared with human CYP3A4 (turnover number) [1]	activity compared with human CYP3A4 (total turnover number) [2]
B1	high turnover number		
B2	high turnover number; also recorded: most excellent turnover number	same activity as that of the human CYP3A4	activity higher than that of the human CYP3A4
B3	high turnover number		
